# How the values were obtained:
# H5N1-NS1-24mer = H5N1-NS1-24mer (Influenza A virus …); test: ELISA; details: both partners purified
# H1N1-PR8-NS1(RBD) = H1N1-PR8-NS1(RBD) (Influenza A virus A/Puerto …, UniProt P03496); test: ELISA; details: both partners purified
# Sequence of H1N1-PR8-NS1(RBD) (P03496 1-70): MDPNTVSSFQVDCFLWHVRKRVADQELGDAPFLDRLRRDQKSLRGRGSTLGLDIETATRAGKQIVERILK
# Sequence of H5N1-NS1-24mer (Influenza A virus …) (O57276 30-53): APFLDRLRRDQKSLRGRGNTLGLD
binder,measurement,setting,value
"monoclonal antibody 2H6 (antibody, V domains shown) VH: DVKLVESGGGLVNLGGSLKLSCAASGFTFSRYYMSWVRQTPEKRLELVAAINHNSGRTYYSDTVKGRFTISRDNAKNTLYLQMSSLKSEDTALYYCTRHPLIYHGNYLDYWGQGTTLTVSS VL: DIVLTQSPASLAVSLGQRATISCKASQSVDYDGDSYVTWYQQKPGQPPKLLIYVASNLESGIPARFSGSGSGTDFTLNIHPVEEEDAATYYCQQSNEDPWTFGGGTKLEIK",binding result,H5N1-NS1-24mer,binds
same,binding result,H1N1-PR8-NS1(RBD),binds

# From publication PMC5025888 (Scientific Reports, 2016)
